The nature of the data set: soluble on expression in E. coli; label from the status in PepcDB or PDB records.
Turning to “MAHHHHHHMKATKAKSGNTATNAVPFNNAPLKIVFLDCDGVVSPFGGPLFAPRQMKFLADIINGSGAQIVLSSSWRTTDFGRKEVARQLTQFGMPVFIDCTPTLPDKPRSVEILSWIDSNKRKYNIVNFVALDDINLPLSAPDRNFFARHAIVTNATTGLTEANVKQALQMLSDTNNI”, the “soluble on expression in E. coli” value was “soluble”.

On to “MSLKITRITVYQVDLPLEHPYWLSGGRLKFELLDATLVKLETDAGITGWGEGTPWGHTYVPAHGPGIRAGIETMAPFVLGLDPRRLLDVERAMDIALPGHLYAKSPIDMACWDIAGQAAGLPIADLMGGGSRTPRPIASSVGAKSVEETRAVIDRYRQRGYVAHSVKIGGDVERDIARIRDVEDIREPGEIVLYDVNRGWTRQQALRVMRATEDLHVMFEQPGETLDDIAAIRPLHSAPVSVDECLVTLQDAARVARDGLAEVFGIKLNRVGGLTRAARMRDIALTHGIDMFVMATGGSVLADAEALHLAATIPDHACHAVWACQDMLTVDIAGGRGPRNIDGHLHLPETPGLGVHPDEDALGDPVAVYSEGHHHHHH”, for which the “soluble on expression in E. coli” value was “soluble”.

With “MEAKKSNKIREIVKLQQLLKKWRKQAIASKAANNNNEDNNSSGGGSKSIKFLKRTLSFTDVTAVPKGYLAVSVGLEKKRYTIPTEYLSHQAFYVLLREAEEEFGFQQAGVLRIPCEVSVFESILKIMEEKNEGYLVTPITAKQECKFNAAADDKTSYQHPSDCPKTPSHQPHNSPMCR”, the “soluble on expression in E. coli” value is given as “soluble”.

For the sequence “MSWREKLGMIHIYTGNGKGKTTAALGLALRMLGSGGKVIIIQFMKAPKVYGEYFMAEKCNFKIESYGLPKFVHGKPDEEDIKAAKRALERAREVVKSGEWDLVILDEICVALGFGMLNIEEVKELIQEKAKNTELVLTGRYCPKELYELADYVTEMREIKHPYQRGILARRGVEY”, the “soluble on expression in E. coli” value is given as “soluble”.

Regarding “SLFQNFINKFVGEKQMDLIKDCNTFLAFVTDKEQTKKKLYKNNMCKNRFCPMCAWRRARKDALGLSLMMQYIKQEEKKEFIFLTLTTPNVKAEELEDEIKKYNLSFGKLVKRKNVKAMMKGYVRKLEITYNKQRDDFNPHFHVLIAVNKSYFKDSKVYISQKEWLEMWRDVTGMPEITQVHVQKIKQNNNKELYEMAKYSGKDSDYLINQKIFDAYYKSLKGKQILVYSGLFKEARKKLKNGELDYLKEIDPTEYLYQIYYIWNQKEYLASELHELTEEEKRKINHQTINEIEEEK”, the “soluble on expression in E. coli” value is recorded as “soluble”.

For the sequence “MTPNKEDYLKCIYEIGIDLHKITNKEIAARMQVSPPAVTEMIKRMKSENLILKDKECGYLLTDLGLKLVSELYRKHRLIEVFLVHHLDYTSDQIHEEAEVLEHTVSDLFVERLDKLLGFPKTCPHGGTIPAKGELLVEINNLPLADIKEAGAYRLTRVHDSFDILHYLDKHSLHIGDQLQVKQFDGFSNTFTILSNDEDLQVNMDIAKQLYVEKIN”, the “soluble on expression in E. coli” value is “not soluble”.

“MTEPLFVITDRPISVEDVMKKVMRPEAGAVAVFAGTVREWTNGKRTLFLQYEAYVSMAEKMLAQIGAEIAEKWPGAKTAITHRIGRLEIGDIAVVIAVSSPHRAEAYEANRYAIERIKQIVPIWKKEQWEDGSAWVGDQLETTAYPSGKPEVSEE”: the “soluble on expression in E. coli” value is reported as “soluble”.

Regarding “MALGETKGIILFTKDFKEKDKLVKIFTESYGKLMFFVKGAHRKNNPLLPAILPFTEAVYIGNFREEGLSFLNSSKEVQPFRNIQQDIFINAYGTYILNLVDAAIEDQHYDPNLFQFTHMALSALNEQKDPEIITNIFEIQLLERFGVRPEWHHCVACGETQGKFDYSSKYSGVLCEKHWHLDEQRYHADPRAIHFIRLFSQVSYEKVQNIQVKEETKKSIRETIDMLYDEYVGLHLKSKKFIDQMKTWENTLKIPPRKKEEK”, the “soluble on expression in E. coli” value is recorded as “not soluble”.

As for “MGSDKIHHHHHHMKILVGSPVSLEEFETIDLFISWLDVIPDNARFSIVGTSKFFIIGKNGREWKKGYEFGIVDADINIFVVGGDLALYPEVFYIAKENGAKLVVGFCEIQNFIDFNFVKAKFWAHTQETSLASIVLLNFLGKVHNNIYFPLEKTKNQTGVVAEGVAPVFLELKKNFFSSEEAEDV”, the “soluble on expression in E. coli” value was “not soluble”.

As to “MSAPLYMQIKQFILDKIDSGDWMVGQRIATEIELTEQFGVSRMTVNKAIRDLVNEGKLQRRPRLGTFVCDPSEKSESPLLDIRNIAEEVSDRGRQYSSKVVQQVAIKADDSIAIKLGVMLGTTVFYSEIIHYEDSTPIQLELRWVNSQYAPSYLSQDFTQITPNQYLSNNCPLSAIEHTVEAIVPDNRIKLDLKMQANEPCLLLNRRTWSQDKLVSTALLYHPGNKYKLSSKVLL”, the “soluble on expression in E. coli” value is “not soluble”.

“MQNTTHDNVILELTVRNHPGVMTHVCGLFARRAFNVEGILCLPIQDSDKSHIWLLVNDDQRLEQMISQIDKLEDVVKVQRNQSDPTMFNKIAVFFQ”: the “soluble on expression in E. coli” value was “not soluble”.

Regarding “MGSDKIHHHHHHMLPQGVKDQKYDQNENIPVSWNCEESDQNHNKQKRNGSPAEGKAQKGGKETQNVLEDVVPEDAEKGKNIDHSTTPMTITLSGTSRVTFSRKYSSSRPATVPMNRYSLKATFHFSLSKYTFQPVTSMSSITESLGTRSPLTTPTTDSRSFSTLTFSTKSSENTLITFEIGPFSTTIPRNLFSSGSRTMAPSSASPRM”, the “soluble on expression in E. coli” value is “not soluble”.

Take “QDKPVFVYRLIARGTVEEKIQHLQQEKAALADGLFSEGNGDGWKLDEADIDAL”: the “soluble on expression in E. coli” value is given as “soluble”.

Take “MGSDKIHHHHHHMAQHEMSPRANSETDTVVLDAPGKSVYESLCEKINLTPVKATRPMESFQSADALSESSLDERVAQAMTVFLKMIQDSSQQVDRLDKSLLDFHIAHLDQQISQQLDAIMHHETFQQIESAWRGLKFLVDRTDFRKNVKIEVLDVSKDALRQDFEDTPELIQSGLYLHTYIQEYDTPGGEPVGSIISNYEFDRSQQDIVLLRNISKVSAAAHMPFIGSVSPKFFGKDSMDEVASIRDIGNYFDRAEYLKWKSFRDSDDARYIGLTLPRFLARLPYGPDTVPVRAFNYTEAVKGPDHSRYLWGNASFAFAVNMVQSFIKNGWCVQIRGPQAGGLVEDLPIHLYDLGTGNQAKIPTEVLIPETREFEFANLGFIPLSYYKNHDFACFFSAHSAQKPALYDTKEATANSRVNARLPYIFLLSRIAHYLKLIQRENIGTTKDRRVLELELNTWIKTLVTEMTDPGDELQASHPLREAKVIVEDIEDNPGFFRVKLFIVPHFQIEGMDINLSLVSQMPKAKTDRLLSASTAI”: the “soluble on expression in E. coli” value was “not soluble”.

Consider “MAHHHHHHMRPVTRSPLLVAAVVVAATLCLNGDNAILSLSSGVRLAHANGPITKDQCFILNPQPTVTSCNAYLPPIVDLYGSLPYDTTPDYADCVKERCLCTGAATSTAIKTSGFFCNSSGWMESGYTTCNVLVDCFSKFWRCINRALYMRYLTDRENLDSGEVDLITDLISHGSHPGEPFDITDTFRSCRLMMCAAANSRQNCGLVTCLPNYTQCDEYIRPPPLPYTHPLCTQGCRAALLMMALTIAAVSFSACCFCCCPAQVRISEPVLMEEVPAHKVELSSMRSEVEAQARRHRTNDPYTQ”, for which the “soluble on expression in E. coli” value is listed as “not soluble”.

Turning to “MAVDWPRGGLMPRLRRLEDLLPHIREGRYRLGPHAAKHMLQEGFREQDILSALLWGRELAIYPEDERMLVLGYMVFPPRLRLPLHVVLEYSTPRHVDIVTAFIPREPYRVYSRARLAALLRFDGALEEVRWTGPKHLYPPWD”, the “soluble on expression in E. coli” value was “soluble”.

In the case of “MKDFITEAWLRANHTLSEGAEIHLPADSRLTPSARELLESRHLRIKFIDEQGRLFVDDEQQQPQPVHGLTSSDEHPQACCELCRQPVAKKPDTLTHLSAEKMVAKSDPRLGFRAVLDSTIALAVWLQIELAEPLGCQAIVGLSDEDLHRLSHQPLRYLGHDHLVPEASHGRDAALLNLLRTKVREAETVAAQVFITRSFEVLRPDILQALNRLSSTVYVMMILSVTKQPLTVKQIQQRLGETQ”, the “soluble on expression in E. coli” value was “not soluble”.

On to “MGSDKIHHHHHHMRTFRLVIACPDRVGIVAKVSNFLASHNGWITEASHHSDNLSGWFFMRHEIRADTLPFDLDGFREAFTPIAEEFSMDWRITDSAQKKRVVLMASRESHCLADLLHRWHSDELDCDIACVISNHQDLRSMVEWHDIPYYHVPVDPKDKEPAFAEVSRLVGHHQADVVVLARYMQILPPQLCREYAHQVINIHHSFLPSFVGAKPYHQASLRGVKLIGATCHYVTEELDAGPIIEQDVVRVSHRDSIENMVRFGRDVEKMVLARGLRAHLEDRVLVHDNKTVVFD”, for which the “soluble on expression in E. coli” value is “not soluble”.

Regarding “MGSDKIHHHHHHMKVQFLGAAQTVTGSCYMIEANGVRFAIDCGMHQGNTEIEKRNDDTEIYRPSDIAFFLVTHAHIDHTGLLPAMTRNGFTGPIYCTEPTADLLGIMLQDSAHIQEMEAEWQSRKLSRNGRIKKVEPLYTTEDATRAAEMLRPVDYGNSFEPSPGIRVTYKDAGHILGSAFLELEVTENGRPTRLVFSGDLGRPDALIVNDPQKAAPADYLFLESTYGDRDHKDPRFSRDELAEAIAYSYGNGEKVIIPAFAVERTQEVLYTLYLLHKEGRLPADMPVFVDSPLAIRATEIFRKHPKYYDDNMKKLVDSGEDPLALPNLKYTLNTQDSQALNVRSGPAVIISASGMCNAGRIKHHLRHNLWRPGASIVFVGYQGVGTPGRKIVDGNATVRLFNEDIAVKAKVFTIGSFSAHAGQSQILEWVSAFAHPQMEVFLVHGEEKAQTTLAGLLRERFNLPVSIPGYLEEVTLKPGRESLHQTDEARAHPDVDWEFLLAETEGKVAQLRKRLAGVEKRPWVEQTDIRERLVEINGELLHFLSQL”, the “soluble on expression in E. coli” value is “not soluble”.

On to “MGSDKIHHHHHHMPFVSYAQNLEDVRLWRALKLFPRGFYIDVGANHPRIDSVTLAFYERGWRGINIEPLPHLHRELERERPEDLNLNLAIGEREGRATLYEMAASGLSTLDPELARQRQAEGCTATPREVKVSTLDAICAAHVEGPIHFLKIDVEGLEGAVLRGLDLNRWRPWLILAETPFDHDPEWKAPLLAAGYRFVHFDGLNGYYLAEEQARLEGAFALPPNLLDDFQLCHGHAMSHPVAPLEQALEQALQRAEDAERALRDWRALPWYRRLFG”, for which the “soluble on expression in E. coli” value was “not soluble”.

In the case of “MTAKMETTFYDDALNASFLPSESGPYGYSNPKILKQSMTLNLADPVGSLKPHLRAKNSDLLTSPDVGLLKLASPELERLIIQSSNGHITTTPTPTQFLCPKNVTDEQEGFAEGFVRALAELHSQNTLPSVTSAAQPVNGAGMVAPAVASVAGGSGSGGFSASLHSEPPVYANLSNFNPGALSSGGGAPSYGAAGLAFPAQPQQQQQPPHHLPQQMPVQHPRLQALKEEPQTVPEMPGETPPLSPIDMESQERIKAERKRMRNRIAASKCRKRKLERIARLEEKVKTLKAQNSELASTANMLREQVAQLKQKVMNHVNSGCQLMLTQQLQTF”, the “soluble on expression in E. coli” value is “soluble”.

For “MTATSDKVLKIQLRSASATVPTKGSATAAGYDIYASQDITIPAMGQGMVSTDISFTVPVGTYGRIAPRSGLAVKNGIQTGAGVVDRDYTGEVKVVLFNHSQRDFAIKKGDRVAQLILEKIVDDAQIVVVDSLEESARGAGGFGSTGN”, the “soluble on expression in E. coli” value was “not soluble”.

With “EVIAAYIEGIKKAAENGLNVSQIHSVASFFVSRLDTEVDKRLEQIGSDEALSLRGKAGVANAQRAYAVFLEAFQAADLPVGAHVQRPLWASTGVKNPDYSPTFYVSELAGPDTVNTMPESTIDAVLAADDIHGDTLSSSSDSANEIFTRISQTGIDFEDVFAVLEQEGVDKFVAAWSDLLDSMESRLK”, the “soluble on expression in E. coli” value was “not soluble”.

For “MSLDSACEGRFVNPITDICWSCIFPLSLGSIKVSQGKVPDTANPSMPIQICPAPAPLFRRIGLAIGYWEPMALTDVTRSPGCMVNLGFSLPAFGKTAQGTAKKDEKQVNGAFYHVHWYKYPLTYWLNIITSLGCLEGGDMDIAYLSEIDPTWTDSSLTTILNPEAVIFANPIAQGACAADAIASAFNMPLDVLFWCAGSQGSMYPFNGWVSNESSPLQSSLLVSERMAFKLHRQGMIMETIGKNNAVCNEYPSPILPKERWRYQMVNMYPDSGQCHPFGRSVMPWETGKNPPNTKKNFGYLMWRKRNCVFLEGHHHHHH”, the “soluble on expression in E. coli” value is on record as “soluble”.

The values are drawn from the DeepSol protein solubility set.
